Reference: patent US20040235726A1, “Glucagon-like peptides (glp-1) and treatment of respiratory distress” (priority 2001, published 2004)
Where no end group is shown, it is not given here.

B1: Val^8-Pro^35-GLP-1 (7-37) OH (peptide)
peptide: HVEGTFTSDVSSYLEGQAAKEFIAWLVKPRG-OH
B2: Gln^22-GLP-1 (7-37) OH (peptide)
peptide: HAEGTFTSDVSSYLEQQAAKEFIAWLVKGRG-OH
B3: Val^8-Tyr^12-Tyr^16-GLP-1 (7-37) OH (peptide)
peptide: HVEGTYTSDYSSYLEGQAAKEFIAWLVKGRG-OH
B4: Val^8-Trp^12-GLP-1 (7-37) OH (peptide)
peptide: HVEGTWTSDVSSYLEGQAAKEFIAWLVKGRG-OH
B5: Gly^8-GLP-1 (7-37) OH (peptide)
peptide: HGEGTFTSDVSSYLEGQAAKEFIAWLVKGRG-OH
B6: Val^8-Glu^22-Leu^25-GLP-1 (7-37) OH (peptide)
peptide: HVEGTFTSDVSSYLEEQALKEFIAWLVKGRG-OH
B7: Val^8-Glu^22-His^37-GLP-1 (7-37) OH (peptide)
peptide: HVEGTFTSDVSSYLEEQAAKEFIAWLVKGRH-OH
B8: Val^8-Phe^20-Glu^22-GLP-1 (7-37) OH (peptide)
peptide: HVEGTFTSDVSSYFEEQAAKEFIAWLVKGRG-OH
B9: Val^8-His^36-GLP-1 (7-37) OH (peptide)
peptide: HVEGTFTSDVSSYLEGQAAKEFIAWLVKGHG-OH
B10: Val^8-Trp^19-Glu^22-GLP-1 (7-37) OH (peptide)
peptide: HVEGTFTSDVSSWLEEQAAKEFIAWLVKGRG-OH
B11: Val^8-Leu^16-Glu^22-GLP-1 (7-37) OH (peptide)
peptide: HVEGTFTSDLSSYLEEQAAKEFIAWLVKGRG-OH
B12: Val^8-Leu^25-GLP-1 (7-37) OH (peptide)
peptide: HVEGTFTSDVSSYLEGQALKEFIAWLVKGRG-OH
B13: Val^8-His^27-GLP-1 (7-37) OH (peptide)
peptide: HVEGTFTSDVSSYLEGQAAKHFIAWLVKGRG-OH
B14: Val^8-Trp^16-Glu^22-Val^25-Ile^33-GLP-1 (7-37) OH (peptide)
peptide: HVEGTFTSDWSSYLEEQAVKEFIAWLIKGRG-OH
B15: Val^8-Lys^18-Glu^22-GLP-1 (7-37) OH (peptide)
peptide: HVEGTFTSDVSKYLEEQAAKEFIAWLVKGRG-OH
B16: Val^8-Asp^9-Ile^11-Tyr^16-Glu^22-GLP-1 (7-37) OH (peptide)
peptide: HVDGIFTSDYSSYLEEQAAKEFIAWLVKGRG-OH
B17: Val^8-Leu^16-GLP-1 (7-37) OH (peptide)
peptide: HVEGTFTSDLSSYLEGQAAKEFIAWLVKGRG-OH
B18: Val^8-Trp^12-Glu^22-GLP-1 (7-37) OH (peptide)
peptide: HVEGTWTSDVSSYLEEQAAKEFIAWLVKGRG-OH
B19: Val^8-Glu^22-Ile^25-GLP-1 (7-37) OH (peptide)
peptide: HVEGTFTSDVSSYLEEQAIKEFIAWLVKGRG-OH
B20: Val^8-Ser^22-GLP-1 (7-37) OH (peptide)
peptide: HVEGTFTSDVSSYLESQAAKEFIAWLVKGRG-OH
B21: Val^8-Ile^18-Glu^22-GLP-1 (7-37) OH (peptide)
peptide: HVEGTFTSDVSIYLEEQAAKEFIAWLVKGRG-OH
B22: Gly^8-Glu^30-GLP-1 (7-37) OH (peptide)
peptide: HGEGTFTSDVSSYLEGQAAKEFIEWLVKGRG-OH
B23: Gly^8-His^11-GLP-1 (7-37) OH (peptide)
peptide: HGEGHFTSDVSSYLEGQAAKEFIAWLVKGRG-OH
B24: Val^8-Asp^22-GLP-1 (7-37) OH (peptide)
peptide: HVEGTFTSDVSSYLEDQAAKEFIAWLVKGRG-OH
B25: Val^8-His^26-GLP-1 (7-37) OH (peptide)
peptide: HVEGTFTSDVSSYLEGQAAHEFIAWLVKGRG-OH
B26: Val^8-Lys^20-GLP-1 (7-37) OH (peptide)
peptide: HVEGTFTSDVSSYKEGQAAKEFIAWLVKGRG-OH
B27: Val^8-His^35-GLP-1 (7-37) OH (peptide)
peptide: HVEGTFTSDVSSYLEGQAAKEFIAWLVKHRG-OH
B28: Val^8-Glu^26-GLP-1 (7-37) OH (peptide)
peptide: HVEGTFTSDVSSYLEGQAAEEFIAWLVKGRG-OH
B29: Val^8-Phe^18-Glu^22-GLP-1 (7-37) OH (peptide)
peptide: HVEGTFTSDVSFYLEEQAAKEFIAWLVKGRG-OH
B30: Val^8-Glu^22-GLP-1 (7-37) OH (peptide)
peptide: HVEGTFTSDVSSYLEEQAAKEFIAWLVKGRG-OH
B31: Val^8-Asp^30-GLP-1 (7-37) OH (peptide)
peptide: HVEGTFTSDVSSYLEGQAAKEFIDWLVKGRG-OH
B32: Val^8-Ala^16-GLP-1 (7-37) OH (peptide)
peptide: HVEGTFTSDASSYLEGQAAKEFIAWLVKGRG-OH
B33: Val^8-His^30-GLP-1 (7-37) OH (peptide)
peptide: HVEGTFTSDVSSYLEGQAAKEFIHWLVKGRG-OH
B34: Val^8-Ile^16-Glu^22-GLP-1 (7-37) OH (peptide)
peptide: HVEGTFTSDISSYLEEQAAKEFIAWLVKGRG-OH
B35: Val^8-Ser^30-GLP-1 (7-37) OH (peptide)
peptide: HVEGTFTSDVSSYLEGQAAKEFISWLVKGRG-OH
B36: Val^8-Glu^35-GLP-1 (7-37) OH (peptide)
peptide: HVEGTFTSDVSSYLEGQAAKEFIAWLVKERG-OH
B37: Val^8-Tyr^16-Trp^19-Glu^22-GLP-1 (7-37) OH (peptide)
peptide: HVEGTFTSDYSSWLEEQAAKEFIAWLVKGRG-OH
B38: Val^8-Trp^16-Glu^22-Ile^33-GLP-1 (7-37) OH (peptide)
peptide: HVEGTFTSDWSSYLEEQAAKEFIAWLIKGRG-OH
B39: Val^8-His^22-GLP-1 (7-37) OH (peptide)
peptide: HVEGTFTSDVSSYLEHQAAKEFIAWLVKGRG-OH
B40: Val^8-Trp^16-Glu^22-Val^25-GLP-1 (7-37) OH (peptide)
peptide: HVEGTFTSDWSSYLEEQAVKEFIAWLVKGRG-OH
B41: Val^8-Ala^22-GLP-1 (7-37) OH (peptide)
peptide: HVEGTFTSDVSSYLEAQAAKEFIAWLVKGRG-OH
B42: Val^8-Phe^16-Glu^22-GLP-1 (7-37) OH (peptide)
peptide: HVEGTFTSDFSSYLEEQAAKEFIAWLVKGRG-OH
B43: Val^8-Lys^23-GLP-1 (7-37) OH (peptide)
peptide: HVEGTFTSDVSSYLEGKAAKEFIAWLVKGRG-OH
B44: Val^8-Glu^36-GLP-1 (7-37) OH (peptide)
peptide: HVEGTFTSDVSSYLEGQAAKEFIAWLVKGEG-OH
B45: Val^8-Lys^22-GLP-1 (7-37) OH (peptide)
peptide: HVEGTFTSDVSSYLEKQAAKEFIAWLVKGRG-OH
B46: Val^8-Tyr^12-Glu^22-GLP-1 (7-37) OH (peptide)
peptide: HVEGTYTSDVSSYLEEQAAKEFIAWLVKGRG-OH
B47: Val^8-Glu^34-GLP-1 (7-37) OH (peptide)
peptide: HVEGTFTSDVSSYLEGQAAKEFIAWLVEGRG-OH
B48: Val^8-Glu^16-GLP-1 (7-37) OH (peptide)
peptide: HVEGTFTSDESSYLEGQAAKEFIAWLVKGRG-OH
B49: Val^8-Tyr^16-Phe^19-GLP-1 (7-37) OH (peptide)
peptide: HVEGTFTSDYSSFLEGQAAKEFIAWLVKGRG-OH
B50: Val^8-Ala^33-GLP-1 (7-37) OH (peptide)
peptide: HVEGTFTSDVSSYLEGQAAKEFIAWLAKGRG-OH
B51: Val^8-Phe^19-Glu^22-GLP-1 (7-37) OH (peptide)
peptide: HVEGTFTSDVSSFLEEQAAKEFIAWLVKGRG-OH
B52: Val^8-Glu^22-Ile^27-GLP-1 (7-37) OH (peptide)
peptide: HVEGTFTSDVSSYLEEQAAKIFIAWLVKGRG-OH
B53: Val^8-Tyr^12-GLP-1 (7-36) NH2 (peptide)
peptide: HVEGTYTSDVSSYLEGQAAKEFIAWLVKGR-NH2
B54: Val^8-Lys^22-GLP-1 (7-36) NH2 (peptide)
peptide: HVEGTFTSDVSSYLEKQAAKEFIAWLVKGR-NH2

Molecular target: human GLP-1 receptor (human, UniProt P43220 24-463)
Experiment: cell-based or functional assay

Row | Binder | GLP-1 receptor activation relative to Val^8-GLP-1 (7-37) OH
1 | B1 | 0.2 relative to Val^8-GLP-1 (7-37) OH
2 | B2 | 0.9 relative to Val^8-GLP-1 (7-37) OH
3 | B3 | 1.5 relative to Val^8-GLP-1 (7-37) OH
4 | B4 | 1.1 relative to Val^8-GLP-1 (7-37) OH
5 | B5 | 1.7 relative to Val^8-GLP-1 (7-37) OH
6 | B6 | 2.8 relative to Val^8-GLP-1 (7-37) OH
7 | B7 | 4.7 relative to Val^8-GLP-1 (7-37) OH
8 | B8 | 2.7 relative to Val^8-GLP-1 (7-37) OH
9 | B9 | 0.5 relative to Val^8-GLP-1 (7-37) OH
10 | B10 | 3.2 relative to Val^8-GLP-1 (7-37) OH
11 | B11 | 4.3 relative to Val^8-GLP-1 (7-37) OH
12 | B12 | 0.5 relative to Val^8-GLP-1 (7-37) OH
13 | B13 | 0.8 relative to Val^8-GLP-1 (7-37) OH
14 | B14 | 5 relative to Val^8-GLP-1 (7-37) OH
15 | B15 | 2.5 relative to Val^8-GLP-1 (7-37) OH
16 | B16 | 4.3 relative to Val^8-GLP-1 (7-37) OH
17 | B17 | 1.1 relative to Val^8-GLP-1 (7-37) OH
18 | B18 | 1.7 relative to Val^8-GLP-1 (7-37) OH
19 | B19 | 3.1 relative to Val^8-GLP-1 (7-37) OH
20 | B20 | 1.1 relative to Val^8-GLP-1 (7-37) OH
21 | B21 | 4 relative to Val^8-GLP-1 (7-37) OH
22 | B22 | 0.6 relative to Val^8-GLP-1 (7-37) OH
23 | B23 | 0.6 relative to Val^8-GLP-1 (7-37) OH
24 | B24 | 0.9 relative to Val^8-GLP-1 (7-37) OH
25 | B25 | 3.5 relative to Val^8-GLP-1 (7-37) OH
26 | B26 | 0.7 relative to Val^8-GLP-1 (7-37) OH
27 | B27 | 0.9 relative to Val^8-GLP-1 (7-37) OH

Row | Binder | GLP-1 receptor activation relative to Val^8-GLP-1 (7-37) OH
28 | B28 | 3.3 relative to Val^8-GLP-1 (7-37) OH
29 | B29 | 2 relative to Val^8-GLP-1 (7-37) OH
30 | B30 | 2.9 relative to Val^8-GLP-1 (7-37) OH
31 | B31 | 0.3 relative to Val^8-GLP-1 (7-37) OH
32 | B32 | 0.25 relative to Val^8-GLP-1 (7-37) OH
33 | B33 | 0.4 relative to Val^8-GLP-1 (7-37) OH
34 | B34 | 3.3 relative to Val^8-GLP-1 (7-37) OH
35 | B35 | 0.4 relative to Val^8-GLP-1 (7-37) OH
36 | B36 | 0.3 relative to Val^8-GLP-1 (7-37) OH
37 | B37 | 3.5 relative to Val^8-GLP-1 (7-37) OH
38 | B38 | 4.1 relative to Val^8-GLP-1 (7-37) OH
39 | B39 | 0.3 relative to Val^8-GLP-1 (7-37) OH
40 | B40 | 4.4 relative to Val^8-GLP-1 (7-37) OH
41 | B41 | 1.2 relative to Val^8-GLP-1 (7-37) OH
42 | B42 | 2.3 relative to Val^8-GLP-1 (7-37) OH
43 | B43 | 0.4 relative to Val^8-GLP-1 (7-37) OH
44 | B44 | 0.2 relative to Val^8-GLP-1 (7-37) OH
45 | B45 | 1.3 relative to Val^8-GLP-1 (7-37) OH
46 | B46 | 2.7 relative to Val^8-GLP-1 (7-37) OH
47 | B47 | 0.4 relative to Val^8-GLP-1 (7-37) OH
48 | B48 | 0.1 relative to Val^8-GLP-1 (7-37) OH
49 | B49 | 2.8 relative to Val^8-GLP-1 (7-37) OH
50 | B50 | 0.2 relative to Val^8-GLP-1 (7-37) OH
51 | B51 | 1.5 relative to Val^8-GLP-1 (7-37) OH
52 | B52 | 2 relative to Val^8-GLP-1 (7-37) OH
53 | B53 | 1.1 relative to Val^8-GLP-1 (7-37) OH
54 | B54 | 1.2 relative to Val^8-GLP-1 (7-37) OH
